Patent US20170101466A1 (published 2017)
One block for each binder: values may come before it.

Columns and labels:
soluble human BLyS [1] = biological target: T1, soluble human BLyS (human, UniProt Q9Y275 134-285); experiment: Biacore T100, binder captured by anti-human Fc, BLyS injected, 1:1 model
T1 construct: also called hBLyS; human BAFF (BLyS)
Experimental: (§1) A Series S CM5 Chip (GE Healthcare) was amine coupled with an anti-human Fc capturing antibody (GE Healthcare Human Fc Kit) to >10,000 RUs. Sample antibodies were diluted in 1×HBS-EP+ running buffer to 0.15 ug/mL and injected for 45 seconds at 10 uL/min. […] Biacore Evaluation software was used to fit the data to a 1:1 Binding Model.

soluble mouse BLyS [2] = biological target: T2, soluble mouse BLyS (mouse, UniProt Q9WU72 127-309); experiment: as above
T2 construct: europium-labelled in DELFIA; also called mBLyS; mouse BAFF (BLyS)
Experimental: as §1

soluble human BLyS [3] = biological target: T1, soluble human BLyS; experiment: ELISA, soluble hBLyS
soluble mouse BLyS [4] = biological target: T2, soluble mouse BLyS; experiment: ELISA, soluble mBLyS
soluble human BLyS [5] = biological target: T1, soluble human BLyS; experiment: blocking of biotinylated soluble hBLyS binding to immobilized mBR3

Kd (soluble human BLyS [1]): 0.905 nM
koff (soluble human BLyS [1]): 0.000174 s⁻¹
kon (soluble human BLyS [1]): 192000 M⁻¹ s⁻¹
Kd (soluble mouse BLyS [2]): 0.121 nM
koff (soluble mouse BLyS [2]): 0.000177 s⁻¹
kon (soluble mouse BLyS [2]): 1.47e+06 M⁻¹ s⁻¹
B1: 6A11 IgG1 F243A/V264A double mutein expressed in Pichia pastoris (antibody, V domains shown)
VH: QIQLVQSGTEVKKPGASVKVSCKASGYTFTDYYMHWVRQAPGQGLEWMGRINPNSGGTNYAQKFQGRVTMTRDTSISTAYMELSRLRSDDTFVYYCAREGYDFLTGYTLGGMDVWGQGTTVTVSS
VL: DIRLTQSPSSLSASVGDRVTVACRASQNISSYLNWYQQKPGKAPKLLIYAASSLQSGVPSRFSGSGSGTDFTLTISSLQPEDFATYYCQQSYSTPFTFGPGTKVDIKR
notes: IgG1 F243A/V264A (EU) double mutein, alpha-2,6-sialylated, from glycoengineered Pichia pastoris; also called 6A11 (D132943)

IC50 (soluble mouse BLyS [4]): 51 nM
B5: 5G10 IgG expressed in HEK293 cells (antibody, V domains shown)
VH: QMQLVQSGAEVKKPGASVKVSCKASGYTFTSYAMHWVRQAPGQRLEWMGWINAGNGNTKYSQKFQGRVTITRDTSASTAYMELSSLRSEDTAVYYCAREMAVAGTYYYYGMDVWGQGTTVTVSS
VL: DIQLTQSPSTLSASVGDRVTITCRASQSISGWLAWYQQKPGRAPKLLIYKASSLESGVPSRFSGSGSGTDFTLTISSLQPEDIATYYCQQFDNLLLMYTFGQGTKLEIRR
notes: IgG from HEK293-FreeStyle cells

IC50 (soluble human BLyS [5]): > 100 nM
B7: 6F5 IgG expressed in HEK293 cells (antibody, V domains shown)
VH: EVQLVQSGAEVKKPGSSVKVSCKASGGTFSSYAISWVRQAPGQGLEWMGGISAYKGNTNYAQKLQGRVTMTTDTSTSTAYMELRSLRSEDTAVYYCARGRLAEYDILTGYYFNTWAFDIWGQGTMVTVSS
VL: QSALTQPASVSGSPGQSITISCTGTSSDVGGYNYVSWYQQHPGKAPKLMIYDVSKRPSGVSNRFSGSKSGNTASLTISGLQAEDEADYYCSSYTSSSTPVLFGGGTKLTVLG
notes: as for B5

The remaining lines, values behind:

B2: human TACI (R&D Systems receptor chimera) (receptor, UniProt O14836 2-166, looked up, not shown: a dimerising Fc or GST)
chain: SGLGRSRRGGRSRVDQEERFPQGLWTGVAMRSCPEEQYWDPLLGTCMSCKTICNHQSQRTCAAFCRSLSCRKEQGKFYDHLLRDCISCASICGQHPKQCAYFCENKLRSPVNLPPELRRQRSGEVENNSDNSGRYQGLEHRGSEASPALPGLKLSADQVALVYST
notes: also called hTACI; TACI rec Human
Kd (soluble mouse BLyS [2]): 0.105 nM
koff (soluble mouse BLyS [2]): 6.5e-05 s⁻¹
kon (soluble mouse BLyS [2]): 621000 M⁻¹ s⁻¹

B3: 5G10 IgG1 F243A/V264A double mutein expressed in Pichia pastoris (antibody, V domains shown)
VH: QMQLVQSGAEVKKPGASVKVSCKASGYTFTSYAMHWVRQAPGQRLEWMGWINAGNGNTKYSQKFQGRVTITRDTSASTAYMELSSLRSEDTAVYYCAREMAVAGTYYYYGMDVWGQGTTVTVSS
VL: DIQLTQSPSTLSASVGDRVTITCRASQSISGWLAWYQQKPGRAPKLLIYKASSLESGVPSRFSGSGSGTDFTLTISSLQPEDIATYYCQQFDNLLLMYTFGQGTKLEIRR
notes: IgG1 F243A/V264A (EU) double mutein, alpha-2,6-sialylated, from glycoengineered Pichia pastoris; also called 5G10 (D132947)
Kd (soluble mouse BLyS [2]): 0.732 nM
koff (soluble mouse BLyS [2]): 0.000451 s⁻¹
kon (soluble mouse BLyS [2]): 616000 M⁻¹ s⁻¹

B4: 1B5 IgG expressed in HEK293 cells (antibody, V domains shown)
VH: QVQLQESGPGLVEPSETLSLTCTVSGGSISGRNYYWGWIRQSTGKGLEWIGSIYYSGSTYYNPSLKSRVTISVDTSKNQFSLKLSSVTAADTAVYYCARDLANYDILTGYYRARGAFDIWGQGTMVTVSS
VL: QSALTQPASVSGSPGQSITISCTGTSSDVGGYNYVSWYQQHPGKAPKLMIYDVNKRPSGVPDRFSGSKSANTASLTVSGLQAEDEADYYCSSYTAGGNWVFGGGTKLTVLG
notes: as for B5
IC50 (soluble human BLyS [3]): 15 nM
IC50 (soluble mouse BLyS [4]): 17 nM
IC50 (soluble human BLyS [5]): 21 nM

B6: 1D6 IgG expressed in HEK293 cells (antibody, V domains shown)
VH: QVTLKESGPTLVKPTQTLTLTCTFSGFSLSTDGVGVGWIRQPPGKALEWLALIYGDDDKRYSPSLKSRLTITKDTSKNQVVLTMTNMDPVDTATYYCAHSISNYDILTGHWIAKTYDYWGQGTLVTVSS
VL: QSALTQPPSASGSPGQSVSISCIGSRSDIGYYNYVSWYQQHPGEAPKLIIFDVSKRPSGVPDRFSGSKSGNTASLTVSGLQPEDEADYYCASYGGRNNLLFGGGTQLTVLG
notes: as for B5
binding result (soluble mouse BLyS [4]): no binding
IC50 (soluble human BLyS [5]): > 100 nM

B8: 2C5 IgG expressed in HEK293 cells (antibody, V domains shown)
VH: QVQLVQSGAEVKKPGASVKVSCKASGYTFTGYYIHWVRQAPGQGLEWMGWINPSSGGTNYAQKFQGRVTMTRDTSASTAFMSLSSLRSEDTAVYYCARSYYDILTGYSRNPFDNWGQGTPVTVSS
VL: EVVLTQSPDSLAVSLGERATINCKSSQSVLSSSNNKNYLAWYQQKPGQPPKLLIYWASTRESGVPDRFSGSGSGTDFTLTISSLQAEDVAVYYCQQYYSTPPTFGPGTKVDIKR
notes: as for B5
binding result (soluble mouse BLyS [4]): no binding
IC50 (soluble human BLyS [5]): > 100 nM

B9: 10B1 IgG expressed in HEK293 cells (antibody, V domains shown)
VH: EVQLVESGAEVKKPGASVKVSCKASGYTFTSYGISWVRQAPGQGLEWMGWISAYNGNTNYAQKLQGRVTMTTDTSTSTAYMELRSLRSDDTAVYYCARADYDILTGYPRGPVDYWGQGTLVTVSS
VL: QSALTQPPSASGSPGQSVTISCTGTSSDVGHYNYVSWYQQHPGKAPKLIIFDVSDRPSGVSNRFSGSKSGNTASLTISGLQAEDEANYYCSSYTSRNTLIFGGGTKLTVLG
notes: as for B5
binding result (soluble mouse BLyS [4]): no binding
